Source: US20210032312A1 (Janssen / Centocor, published 2021)
Residue numbers refer to the chain shown, from its start. One block for each binder: values may come before it.

What was measured:
[1] = molecular target: T1, human CD8A-Fc (in house) (human, UniProt P01732 22-182, limits assumed); assay: SPR (ProteOn), captured hCD8A-Fc
T1 construct: captured by goat anti-human Fc on the ProteOn chip; also called hCD8A-Fc; recombinant human CD8 alpha; not shown: linker/tag and Fc of human IgG1

[2] = molecular target: T2, cynomolgus monkey CD8 alpha on primary cynomolgus CD8+ T cells (cynomolgus monkey, UniProt P01732 23-235 (human entry)); assay: flow cytometry, cyno CD8+ T cells
T2 construct: also called Cyno CD8alpha; cyno CD8A
Experimental: (§1) Binding of the 190 ELISA hits to human and cynomologous monkey primary CD8 T cells was assessed by flow cytometry. The FN3 domain molecules were diluted to 2 μM and 0.2 μM in PBS and incubated with human or cynomologous monkey CD8+ T cells in 96-well format. After 1 hour at 4 C, the cells were washed once with PBS and then resuspended with an anti-FN3 domain antibody (PAB25) solution. Following this incubation, the cells were washed twice with PBS and a PE conjugated secondary antibody and a viability dye were added. Finally, cells were washed and resuspended in PBS for flow cytometric analysis using a BD Canto Instrument. Cells were gating on live cells and median fluorescence intensity of the bound Centyrins (PE channel) was calculated using Cytobank software.

[3] = molecular target: T3, human CD8 alpha (CD8A) on primary human CD8+ T cells (human, UniProt P01732 22-235); assay: flow cytometry, human CD8+ T cells
T3 construct: whole, on cells; also called hCD8A
Experimental: as §1

T2 sequence (P01732 other isoform, or with tags, fused parts or gaps limits assumed): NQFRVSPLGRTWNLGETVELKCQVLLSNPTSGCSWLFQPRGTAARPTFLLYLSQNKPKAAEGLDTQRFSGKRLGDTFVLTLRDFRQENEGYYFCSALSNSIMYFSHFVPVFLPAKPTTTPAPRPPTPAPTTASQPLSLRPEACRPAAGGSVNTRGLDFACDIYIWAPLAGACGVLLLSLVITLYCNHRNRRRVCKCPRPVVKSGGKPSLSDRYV
T3 sequence (P01732 22-235): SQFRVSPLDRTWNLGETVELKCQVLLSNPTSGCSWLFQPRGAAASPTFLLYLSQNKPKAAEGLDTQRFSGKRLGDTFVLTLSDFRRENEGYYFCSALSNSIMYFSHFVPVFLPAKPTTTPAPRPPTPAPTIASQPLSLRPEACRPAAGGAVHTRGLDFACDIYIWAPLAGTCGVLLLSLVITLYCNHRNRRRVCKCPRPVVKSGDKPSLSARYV
T1 sequence (P01732 22-182 limits assumed): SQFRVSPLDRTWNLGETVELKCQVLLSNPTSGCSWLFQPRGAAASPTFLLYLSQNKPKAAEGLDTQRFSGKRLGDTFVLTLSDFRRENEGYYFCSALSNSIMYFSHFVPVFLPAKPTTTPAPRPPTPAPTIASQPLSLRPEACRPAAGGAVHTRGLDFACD

B2: P283FR9P1366_H9 (designed binder)
chain: LPAPKNLVVSRVTEDSARLSWTAPDAAFDSFEIAYPEWPVNGEAIVLTVPGSERSYDLTGLKPGTEYWVVIWGVKGGVNSYPLSAIFTT
notes: FN3 domain
- koff [1]: 0.00198 s⁻¹
- Cyno T-cell Binding 0.2 uM (MFI) [2]: 2880 MFI
- Cyno T-cell Binding 2 uM (MFI) [2]: 36500 MFI
- Human T-cell Binding 0.2 uM (MFI) [3]: 693 MFI
- Human T-cell Binding 2 uM (MFI) [3]: 8570 MFI

B3: P283FR9P1366_H6 (designed binder)
chain: B2 chain with E32D, N41T, V70I, W72F, V78E, N79R, Y81W
notes: FN3 domain
- koff [1]: 0.000205 s⁻¹
- Cyno T-cell Binding 0.2 uM (MFI) [2]: 19000 MFI
- Cyno T-cell Binding 2 uM (MFI) [2]: 81500 MFI
- Human T-cell Binding 0.2 uM (MFI) [3]: 7130 MFI
- Human T-cell Binding 2 uM (MFI) [3]: 43900 MFI

B4: P283FR9P1366_H3 (designed binder)
chain: B2 chain with E32A, V40I, N41K, W72Y, N79F, Y81E
notes: FN3 domain
- koff [1]: 0.00121 s⁻¹
- Cyno T-cell Binding 0.2 uM (MFI) [2]: 3170 MFI
- Cyno T-cell Binding 2 uM (MFI) [2]: 40800 MFI
- Human T-cell Binding 0.2 uM (MFI) [3]: 632 MFI
- Human T-cell Binding 2 uM (MFI) [3]: 7670 MFI

B5: P283FR9P1366_F5 (designed binder)
chain: B2 chain with E32D, A34G, V40I, N41K, V70I, V78D, N79R, Y81E
notes: FN3 domain
- koff [1]: 0.00104 s⁻¹
- Cyno T-cell Binding 0.2 uM (MFI) [2]: 4700 MFI
- Cyno T-cell Binding 2 uM (MFI) [2]: 46400 MFI
- Human T-cell Binding 0.2 uM (MFI) [3]: 720 MFI
- Human T-cell Binding 2 uM (MFI) [3]: 6880 MFI

B6: P283FR9P1366_F8 (designed binder)
chain: B2 chain with E32A, W38I, P39A, V40K, N41W, W68F, V70I, W72Y, N79H, Y81F
notes: FN3 domain
- koff [1]: 0.00403 s⁻¹
- Cyno T-cell Binding 0.2 uM (MFI) [2]: 2270 MFI
- Cyno T-cell Binding 2 uM (MFI) [2]: 27000 MFI
- Human T-cell Binding 0.2 uM (MFI) [3]: 369 MFI
- Human T-cell Binding 2 uM (MFI) [3]: 3970 MFI

B7: P283GR7P1367_C9 (designed binder)
chain: B2 chain with E32L, A34G, V40L, N41G, V70I, W72Y, V78E, N79Y, Y81D
notes: FN3 domain
- koff [1]: 0.00221 s⁻¹
- Cyno T-cell Binding 0.2 uM (MFI) [2]: 5550 MFI
- Cyno T-cell Binding 2 uM (MFI) [2]: 67000 MFI
- Human T-cell Binding 0.2 uM (MFI) [3]: 896 MFI
- Human T-cell Binding 2 uM (MFI) [3]: 11000 MFI

B9: P283FR9P1366_G5 (designed binder)
chain: B2 chain with E32Q, W38Y, V40A, N41L, W68F, V70I, W72I, V78D, N79E, Y81F
notes: FN3 domain
- koff [1]: 0.000705 s⁻¹
- Cyno T-cell Binding 0.2 uM (MFI) [2]: 369 MFI
- Cyno T-cell Binding 2 uM (MFI) [2]: 36400 MFI
- Human T-cell Binding 0.2 uM (MFI) [3]: 261 MFI
- Human T-cell Binding 2 uM (MFI) [3]: 8450 MFI

B13: P283FR9P1366_H5 (designed binder)
chain: LPAPKNLVVSRVTEDSARLSWTAPDAAFDSFIYIENKVNGEAIVLTVPGSERSYDLTGLKPGTEYHVTIGGVKGGTESNTLSAIFTT
notes: FN3 domain
- koff [1]: 0.00318 s⁻¹
- Cyno T-cell Binding 0.2 uM (MFI) [2]: 477 MFI
- Cyno T-cell Binding 2 uM (MFI) [2]: 5090 MFI
- Human T-cell Binding 0.2 uM (MFI) [3]: 252 MFI
- Human T-cell Binding 2 uM (MFI) [3]: 3140 MFI

Results, then the binder that gave them:

- koff [1]: 0.00108 s⁻¹
- Cyno T-cell Binding 0.2 uM (MFI) [2]: 2050 MFI
- Cyno T-cell Binding 2 uM (MFI) [2]: 29000 MFI
- Human T-cell Binding 0.2 uM (MFI) [3]: 601 MFI
- Human T-cell Binding 2 uM (MFI) [3]: 4560 MFI
B1: P283GR7P1367_F5 (designed binder)
chain: B2 chain with E32D, V40T, N41D, W68F, V70I, W72Y, V78A, N79L, Y81R
notes: FN3 domain

- koff [1]: 0.00147 s⁻¹
- Cyno T-cell Binding 0.2 uM (MFI) [2]: 918 MFI
- Cyno T-cell Binding 2 uM (MFI) [2]: 6120 MFI
- Human T-cell Binding 0.2 uM (MFI) [3]: 434 MFI
- Human T-cell Binding 2 uM (MFI) [3]: 1710 MFI
B8: P283GR7P1367_H9 (designed binder)
chain: B2 chain with E32D, V40T, N41D, W68F, W72Y, V78G, N79R, Y81A
notes: FN3 domain

- koff [1]: 0.00385 s⁻¹
- Cyno T-cell Binding 0.2 uM (MFI) [2]: 1420 MFI
- Cyno T-cell Binding 2 uM (MFI) [2]: 21000 MFI
- Human T-cell Binding 0.2 uM (MFI) [3]: 450 MFI
- Human T-cell Binding 2 uM (MFI) [3]: 1460 MFI
B10: P283GR7P1367_G8 (designed binder)
chain: LPAPKNLVVSRVTEDSARLSWTAPDAAFDSFYIAYPEYVWGGEATSLGEAIVLTVPGSERSYDLTGLKPGTEYFVVITGVKGGLGSYPLSAIFTT
notes: FN3 domain

- koff [1]: 0.000513 s⁻¹
- Cyno T-cell Binding 0.2 uM (MFI) [2]: 4770 MFI
- Cyno T-cell Binding 2 uM (MFI) [2]: 42300 MFI
- Human T-cell Binding 0.2 uM (MFI) [3]: 3230 MFI
- Human T-cell Binding 2 uM (MFI) [3]: 13600 MFI
B11: P283HR7P1368_A10 (designed binder)
chain: LPAPKNLVVSRVTEDSARLSWTAPDAAFDSFWIFYLEPFPRGEAIPLEVPGSERSYDLTGLKPGTEYSVDIRGVKGGDHSDPLWAYFTT
notes: FN3 domain

- koff [1]: 0.00974 s⁻¹
- Cyno T-cell Binding 0.2 uM (MFI) [2]: 930 MFI
- Cyno T-cell Binding 2 uM (MFI) [2]: 20900 MFI
- Human T-cell Binding 0.2 uM (MFI) [3]: 303 MFI
- Human T-cell Binding 2 uM (MFI) [3]: 5270 MFI
B12: P283GR7P1367_H8 (designed binder)
chain: LPAPKNLVVSRVTEDSARLSWTAPDAAFDSFSINYWEEDPAGEAIVLTVPGSERSYDLTGLKPGTEYRVLIGGVKGGHGSLPLSAIFTT
notes: FN3 domain

- koff [1]: 0.00166 s⁻¹
- Cyno T-cell Binding 0.2 uM (MFI) [2]: 1410 MFI
- Cyno T-cell Binding 2 uM (MFI) [2]: 7850 MFI
- Human T-cell Binding 0.2 uM (MFI) [3]: 2310 MFI
- Human T-cell Binding 2 uM (MFI) [3]: 14100 MFI
B14: P283HR7P1368_D1 (designed binder)
chain: LPAPKNLVVSRVTEDSARLSWTAPDAAFDSFGISYYEWAPNGEAIQLSVPGSERSYDLTGLKPGTEYHVVIIGVKGGEPSHPLGAPFTT
notes: FN3 domain
